Reference: patent publication US20110020344A1 (US Dept. of Health and Human Services, published 2011)

T1: Soluble CD22 (PeproTech) (human, UniProt P20273 20-687, limits assumed)
T1 construct: Bought from PeproTech; also called sCD22; soluble CD22 purified from mammalian cells
T1 sequence: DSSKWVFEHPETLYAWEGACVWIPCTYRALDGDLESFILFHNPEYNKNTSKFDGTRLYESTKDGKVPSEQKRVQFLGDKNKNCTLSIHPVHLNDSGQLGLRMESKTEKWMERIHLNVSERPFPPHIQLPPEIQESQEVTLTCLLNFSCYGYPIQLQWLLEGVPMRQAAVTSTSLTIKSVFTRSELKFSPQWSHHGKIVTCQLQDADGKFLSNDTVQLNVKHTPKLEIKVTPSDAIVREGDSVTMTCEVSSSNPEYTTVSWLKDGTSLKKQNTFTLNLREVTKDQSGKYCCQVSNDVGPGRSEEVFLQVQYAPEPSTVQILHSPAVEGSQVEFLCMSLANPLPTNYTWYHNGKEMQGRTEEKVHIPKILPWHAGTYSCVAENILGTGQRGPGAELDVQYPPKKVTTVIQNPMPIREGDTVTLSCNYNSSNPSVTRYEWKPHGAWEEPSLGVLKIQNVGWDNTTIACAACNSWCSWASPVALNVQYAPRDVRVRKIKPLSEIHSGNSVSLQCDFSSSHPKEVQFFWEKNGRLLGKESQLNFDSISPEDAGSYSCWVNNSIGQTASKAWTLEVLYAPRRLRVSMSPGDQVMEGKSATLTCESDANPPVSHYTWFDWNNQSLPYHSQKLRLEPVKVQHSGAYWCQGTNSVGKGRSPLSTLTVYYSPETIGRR

T2: native, cell surface-associated CD22 on B lymphoma cell lines (Raji, BJAB, ST486) (human, UniProt P20273 20-847)
T2 construct: Endogenous CD22 of Raji, BJAB and ST486 cells; the cell line is named under assay; also called cell surface CD22; cell-associated CD22
T2 sequence: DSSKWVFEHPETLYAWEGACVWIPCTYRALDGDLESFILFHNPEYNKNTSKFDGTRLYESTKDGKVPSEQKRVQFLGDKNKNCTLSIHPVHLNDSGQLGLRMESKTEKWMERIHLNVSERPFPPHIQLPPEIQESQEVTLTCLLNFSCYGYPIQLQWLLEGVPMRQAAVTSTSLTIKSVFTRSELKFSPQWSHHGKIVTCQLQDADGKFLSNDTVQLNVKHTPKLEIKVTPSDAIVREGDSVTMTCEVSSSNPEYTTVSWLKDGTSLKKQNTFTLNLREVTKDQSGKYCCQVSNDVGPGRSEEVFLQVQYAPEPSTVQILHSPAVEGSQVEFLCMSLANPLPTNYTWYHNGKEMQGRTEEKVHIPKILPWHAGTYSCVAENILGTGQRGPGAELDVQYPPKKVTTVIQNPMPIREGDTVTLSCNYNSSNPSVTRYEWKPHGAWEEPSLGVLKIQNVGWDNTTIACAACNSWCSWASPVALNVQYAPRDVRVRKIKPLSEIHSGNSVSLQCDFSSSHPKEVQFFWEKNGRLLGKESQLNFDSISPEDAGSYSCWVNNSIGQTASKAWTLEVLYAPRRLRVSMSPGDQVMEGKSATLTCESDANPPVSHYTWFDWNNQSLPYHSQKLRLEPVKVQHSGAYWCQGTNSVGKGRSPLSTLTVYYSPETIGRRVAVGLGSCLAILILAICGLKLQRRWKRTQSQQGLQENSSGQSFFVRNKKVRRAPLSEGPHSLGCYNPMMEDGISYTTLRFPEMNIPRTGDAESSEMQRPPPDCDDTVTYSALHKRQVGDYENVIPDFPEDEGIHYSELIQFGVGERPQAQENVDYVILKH

B1: Fab m972 (Fab, V domains shown)
VH: EVQLVQSGGGVVRPGGSLRLPCAASGFTFDDYGMSWVRQAPGKGLEWVSGINWNGGSTGYADSVKGRFTISRDNAKNSLYLQMNSLRAEDTALYHCARGGDDAFDIWGQGTMVTVSS
VL: RIVMTQSPGTLSVSPGETATLSCRASQSFSNMLAWYQQKSGQPPRLLIYGVSTRAAGVPARFSGSGSGTEFTLTISNLQSEDFAVYYCQQYGDWPRYTFGQGTKVERKR
notes: Human Fab from a naive Fab phage library, expressed in E. coli HB2151; also called m972 Fab
B2: IgG1 m972 (antibody, V domains shown)
VH: B1 VH
VL: B1 VL
notes: IgG1 format made by moving the heavy and light chains of the clone into pDR12, expressed in 293 free style cells; also called m972 IgG1; not shown: rest of the human IgG1 heavy chain constant region from vector pDR12

Legend:
[1] = target: T1, Soluble CD22 (PeproTech); experiment: ELISA, Fab on coated soluble CD22
Description: (§1) CD22 or CD22-Fc in PBS was coated to a 96-well plate overnight at 4° C. The plate was then washed with PBST (PBS+0.05% Tween) and blocked with PBST supplemented with 5% dry milk. Fab, scFv or IgG1 diluted in PBST+milk was added to the wells. The Fab and scFv binding was detected using the anti-His-IgG-HRP (Qiagen) and the IgG1 binding was detected using the anti-human Fc-IgG-HRP (Sigma, St. Louis, Mo.). After washing, ABTS substrate (Roche, Mannheim, Germany) was added to each well and OD₄₀₅ was recorded after five to ten minutes.

[2] = target: T1, Soluble CD22 (PeproTech); experiment: ELISA, Fab on coated soluble CD22; reference Fab m971
[3] = target: T1, Soluble CD22 (PeproTech); experiment: ELISA, IgG1 on coated soluble CD22
Description: as §1

[4] = target: T2, native, cell surface-associated CD22 on …; experiment: flow cytometry titration on BJAB cells, apparent affinity from median fluorescence against concentration
Description: SupT1, Raji, BJAB, and ST486 cells in suspension culture were collected by centrifugation and then re-suspended in ice-cold RPMI+10% FBS medium at a density of 1×10⁶/ml. ScFv or IgG1 at different concentrations were added to the cells. Cells were left on ice for half an hour before being washed with the same complete RPMI medium. […] For IgG1, anti-human-IgG-FITC was added to the cells. The cells were then washed with RPMI medium twice and re-suspended in PBS and subjected to flow cytometry analysis using the FACSCalibur™ (Becton Dickinson, San Jose, Calif.)
The binding characteristics of the two IgGs to cell surface-associated CD22 was further analyzed by using increasing concentrations of both IgGs against BJAB cells in a flow cytometry assay.

| Binder | EC50 [1] [nM] | fold better binding than m971 [2] [fold] | EC50 [3] [nM] | Kd [4] [nM] |
| --- | --- | --- | --- | --- |
| B1 | 2 | 10 | – | – |
| B2 | – | – | < 1 | ~15 |
